B1: subtilisin Carlsberg: subtilisin Carlsberg (from Bacillus licheniformis) (protein, UniProt P00780 106-379, looked up)
Subtilisin Carlsberg: AQTVPYGIPLIKADKVQAQGFKGANVKVAVLDTGIQASHPDLNVVGGASFVAGEAYNTDGNGHGTHVAGTVAALDNTTGVLGVAPSVSLYAVKVLNSSGSGSYSGIVSGIEWATTNGMDVINMSLGGASGSTAMKQAVDNAYAKGVVVVAAAGNSGSSGNTNTIGYPAKYDSVIAVGAVDSNSNRASFSSVGAELEVMAPGAGVYSTYPTNTYATLNGTSMASPHVAGAAALILSKHPNLSASQVRNRLSSTATYLGSSFYYGKGLINVEAAAQ
B2: Subtilisin BPN': subtilisin BPN' (from Bacillus amyloliquefaciens) (protein, UniProt P00782 108-382, looked up)
Subtilisin BPN': AQSVPYGVSQIKAPALHSQGYTGSNVKVAVIDSGIDSSHPDLKVAGGASMVPSETNPFQDNNSHGTHVAGTVAALNNSIGVLGVAPSASLYAVKVLGADGSGQYSWIINGIEWAIANNMDVINMSLGGPSGSAALKAAVDKAVASGVVVVAAAGNEGTSGSSSTVGYPGKYPSVIAVGAVDSSNQRASFSSVGPELDVMAPGVSIQSTLPGNKYGAYNGTSMASPHVAGAAALILSKHPNWTNTQVRSSLENTTTKLGDSFYYGKGLINVQAAAQ
B3: papain: papain, pI of about 8.75 and maximal activity at pH 7.8 (protein, UniProt P00784 134-345, looked up)
Papain: IPEYVDWRQKGAVTPVKNQGSCGSCWAFSAVVTIEGIIKIRTGNLNEYSEQELLDCDRRSYGCNGGYPWSALQLVAQYGIHYRNTYPYEGVQRYCRSREKGPYAAKTDGVRQVQPYNEGALLYSIANQPVSVVLEAAGKDFQLYRGGIFVGPCGNKVDHAVAAVGYGPNYILIKNSWGTGWGENGYIRIKRGTGNSYGVCGLYTSSFYPVKN

What was measured:
[1] = target: CT (Bos taurus, UniProt P00766); assay: Transesterification with CT pre-inactivated by PMSF; assay type: biochemical; settings: PMSF 0.3 mM
Experimental: Values for kcat /Km were determined by nonlinear fit of the kinetic data and represent averages of triplicate measurements with standard deviations in each case of less than 5%. Initial rates of formation of N-acetyl-L-phenylalanine propyl ester were determined by gas chromatography (530-μm fused silica gum (Hewlett-Packard)). […] Saturation kinetics could not be determined for reactions with CT suspended in isooctane as the solubility limit for the substrate in this solvent is substantially below the Km of the enzyme.

[2] = Extraction of enzyme from aqueous solution into isooctane containing 2 mM AOT; assay type: physicochemical
[3] = source not stated; cited from earlier work
[4] = source not stated; cited from earlier work; remark: listed apart in the source
[5] = 1 mg/ml aqueous enzyme, pH 7.8, 2 mM CaCl2, 2 mM AOT in isooctane

Molecule	reaction with pre-inactivated CT [1]	Extraction Yield (enzyme in organic phase) [2, 5]	pH of maximal activity [3]	pI [4]	extraction ([2]; 1 mg/ml aqueous solution, pH 7.8, 2 mM AOT in isooctane)	Extraction Yield (enzyme in organic phase) ([2]; 0.5 mg/ml aqueous papain, pH 7.8, CaCl2, MnCl2, KCl, 2 mM AOT in isooctane)
O=S(=O)(F)Cc1ccccc1 [phenylmethanesulfonyl fluoride]	No reaction was observed	–	–	–	–	–
B1	–	0.3 mg/mL	~7.8	8.5	–	–
B2	–	0.4 mg/mL	7.8	9.4	40%	–
B3	–	–	7.8	about 8.75	–	0.35 mg/mL
